The target in the test is HIV-1 CA A14C/E45C/W184A/M185A (pET11a-CA (A14C, E45C, W184A and M185A)), assembled into soluble cross-linked hexamers (HIV-1). The test can be described thus: cross-linking.

In the case of “HIV-1 CA A14C/E45C/W184A/M185A (pET11a-CA (A14C, E45C, W184A and M185A)), assembled into soluble cross-linked hexamers (natural protein)”, the stoichiometry N stood at 6.

Usually stoichiometry N stands for the number of molecules, sites or subunits per partner or assembly.

Source of the values: publication PMC8860611.
